Reference: patent US20200405868A1, “GEL-FORMING POLYPEPTIDES” (priority 2018, published 2020)
The star is where a group is joined. Palmitoyl = CCCCCCCCCCCCCCCC(=O)*

Legend:
[1] = biological target: FITC-labled GnRH molecule (a peptide) (UniProt P01148); assay: Centricon filter release assay: FITC-GnRH that passed into the lower chamber with carrier at 1 mg/100 ml (control without carrier 72.50)
[2] = biological target: FITC-labled GnRH molecule (a peptide) (UniProt P01148); assay: Centricon filter release assay: FITC-GnRH that passed into the lower chamber with carrier at 1 mg/10 ml (control without carrier 72.50); a lower reading means more retention with the carrier

B1: SEQ ID NO:119, Pal-SSPHSY-NH2, gel-forming peptide (peptide)
peptide: Palmitoyl-SSPHSY-NH2
SMILES: CCCCCCCCCCCCCCCC(=O)N[C@@H](CO)C(=O)N[C@@H](CO)C(=O)N1CCC[C@H]1C(=O)N[C@@H](Cc1c[nH]cn1)C(=O)N[C@@H](CO)C(=O)N[C@@H](Cc1ccc(O)cc1)C(N)=O
[1]
  Fluorescent Reading (average of duplicates): 58.4
[2]
  Fluorescent Reading (average of duplicates): 9
